# According to publication PMC2887905:
# Experiments:
# [1] = target: Recombinant HIV-1 gp120 (LAV, CXCR4 monotropic, identical to NL4-3 gp120, glycosylated) (HIV-1 (LAV; identical to NL4-3 gp120)) (UniProt P03377)
# [2] = target: gp41 (ARP671, spanning the entire extracellular domain of HIV-1 gp41MN) (HIV-1 (MN)) (UniProt P05877); assay: SPR; gp41 immobilised on a biosensor; data not shown
# UniProt P05877, sequence (P05877 32-685): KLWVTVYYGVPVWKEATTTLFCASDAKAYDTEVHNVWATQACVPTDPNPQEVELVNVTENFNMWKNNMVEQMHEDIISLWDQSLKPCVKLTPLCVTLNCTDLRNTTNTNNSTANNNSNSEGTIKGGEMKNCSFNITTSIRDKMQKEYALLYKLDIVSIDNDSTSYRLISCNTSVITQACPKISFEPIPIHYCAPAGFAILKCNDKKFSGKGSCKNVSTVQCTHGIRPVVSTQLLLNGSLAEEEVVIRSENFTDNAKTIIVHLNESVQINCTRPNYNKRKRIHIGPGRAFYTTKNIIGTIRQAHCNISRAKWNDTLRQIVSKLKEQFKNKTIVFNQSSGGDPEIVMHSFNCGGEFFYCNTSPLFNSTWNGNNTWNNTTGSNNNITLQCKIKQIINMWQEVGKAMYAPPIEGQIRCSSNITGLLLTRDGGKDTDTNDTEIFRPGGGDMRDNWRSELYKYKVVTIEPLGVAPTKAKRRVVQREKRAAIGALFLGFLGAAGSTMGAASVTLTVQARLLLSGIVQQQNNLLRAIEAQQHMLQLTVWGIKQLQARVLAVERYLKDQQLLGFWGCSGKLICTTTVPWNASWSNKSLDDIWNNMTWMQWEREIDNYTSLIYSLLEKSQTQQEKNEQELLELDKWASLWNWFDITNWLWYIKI
Substance,"neutralisation of HIV-1 NL4-3 infection, p24 antigen ELISA on day 5, dose-dependent, value at 20 μg/ml [1] [%]",response units [2] [RU],"neutralisation of HIV-1 NL4-3 infection, p24 antigen ELISA on day 5, value at 50 μg/ml [1] [%]"
HOCl-modified bovine serum albumin (protein:HOCl molar ratio 1:1000) (from UniProt P02769 25-607),> 90,< 5,–
HOCl-modified human serum albumin (protein:HOCl molar ratio 1:1000) (from UniProt P02768 25-609),> 95,< 5,–
HOCl-modified mouse serum albumin (protein:HOCl molar ratio 1:1000) (from UniProt P07724 25-608),–,< 5,> 90
